Experimental data as given in publication PMC2955050.
Non-standard residues stand in square brackets, D forms with d. No end group written: not given here. pY = N[C@@H](Cc1ccc(OP(=O)(O)O)cc1)C(=O)O

molecular target: recombinant DLAR catalytic domain (Drosophila)

Kcat/Km of dephosphorylation of the peptide by DLAR (malachite green phosphatase assay) [sec^-1M^-1] | Binder
196000 | VIGD[pY]VCRLCK (cysteine pairing not given here) [Nervous Fingers peptide VIGD(pY)VCRLCK]
143000 | CDDS[pY]FGNKC (cysteine pairing not given here) [Myospheroid peptide CDDS(pY)FGNKC]

Continued, binder first:

Binder | Kcat/Km of dephosphorylation of the peptide by DLAR (malachite green phosphatase assay) [sec^-1M^-1]
TRDI[pY]ETDYYRK [Insulin receptor peptide TRDI(pY)ETDYYRK] | 264000
TAEPD[pY]GALYE [Cuticle peptide TAEPD(pY)GALYE] | 300000
RDDT[pY]TAHAG [Abelson peptide RDDT(pY)TAHAG] | 180000
